Test results as given in the supplement of paper PMC11811203.

B1: THAP1; numbered along this chain (parent)
chain: MVQSCSAYGCKNRYDKDKPVSFHKFPLTRPSLCKEWEAAVRRKNFKPTKYSSICSEHFTPDCFKRECNNKLLKENAVPTIFLCTEPHDKKEDLLEPQEQLPPPPLPPPVSQVDAAIGLLMPPLQTPVNLSVFCDHNYTVEDTMHQRKRIHQLEQQVEKLRKKLKTAQQRCRRQERQLEKLKEVVHFQKEKDDVSERGYVILPNDYFEIVEVPA

Variants of: B1
Assay: THAP1 transcriptional activity (GFP+/GFP- enrichment relative to wild-type constructs) (ratio to WT); higher = more THAP1 activity (PSMB5 reporter activation)
Conditions: with PSMB5 promoter-GFP reporter
Procedure, shortened: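 In duplicate, a lentivirus-delivered library with every residue from 2–213 of human THAP1 changed to all 20 amino acids was introduced at MOI ~0.3 into THAP1-knockout HEK-293T cells carrying endogenous PSMB5 tagged by mClover3 knock-in. Five days on, BFP+ cells were binned as GFP-dim or GFP-bright, and Illumina sequencing of genomic DNA amplicons counted each variant. Activity is the bright/dim read fold change, averaged over replicates and scaled to the mean of wild-type synonymous constructs.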

Compared with V211R, V211S is higher in THAP1 transcriptional activity: 0.811 for the first, 1.03 for the second.

First: V211T
Second: V211W
The THAP1 transcriptional activity of the first is higher: 0.876 for the first, 0.56 for the second.

Compared with V211Y, P212C is lower in THAP1 transcriptional activity: 0.843 for the first, 0.673 for the second.

First: P212D
Second: P212E
The THAP1 transcriptional activity of the first is higher: 0.943 for the first, 0.535 for the second.

Compared with P212F, P212G is higher in THAP1 transcriptional activity: 0.548 for the first, 0.939 for the second.

Going from P212H to P212I, the THAP1 transcriptional activity falls from 2.31 to 1.75.

Going from P212K to P212L, the THAP1 transcriptional activity rises from 0.974 to 1.42.

Compared with P212M, P212N is lower in THAP1 transcriptional activity: 1.4 for the first, 1.15 for the second.

Compared with P212Q, P212R is lower in THAP1 transcriptional activity: 1.45 for the first, 0.594 for the second.

Going from P212S to P212V, the THAP1 transcriptional activity rises from 1.34 to 1.99.

First: P212W
Second: P212Y
The THAP1 transcriptional activity of the first is lower: 0.968 for the first, 1.42 for the second.

First: A213C
Second: A213D
The THAP1 transcriptional activity of the first is higher: 0.884 for the first, 0.729 for the second.

Going from A213E to A213F, the THAP1 transcriptional activity falls from 0.81 to 0.655.

First: A213G
Second: A213H
The THAP1 transcriptional activity of the first is higher: 0.677 for the first, 0.644 for the second.

Compared with A213I, A213K is higher in THAP1 transcriptional activity: 0.974 for the first, 1.13 for the second.

Going from A213L to A213M, the THAP1 transcriptional activity rises from 0.907 to 0.984.

First: A213N
Second: A213Q
The THAP1 transcriptional activity of the first is higher: 1.27 for the first, 1.25 for the second.

Going from A213R to A213V, the THAP1 transcriptional activity falls from 0.843 to 0.455.

Going from A213W to A213Y, the THAP1 transcriptional activity rises from 0.538 to 0.711.
